Results on 32 variants are retold here after the RNAGym collection of RNA variant scans (doi:10.7554/elife.80360).

The labels stand for the following.
B1: HDV Ribozyme (parent)
chain: GGCCGGCAUGGUCCCAGCCUCCUCGCUGGCGCCGGCUGGGCAACAUUCCGAGGGGACCGUCCCCUCGGUAAUGGCGAAUGGGACCCA

The variants in the data set derive from B1. The data set can be described thus: self-cleavage, relative activity (ratio to wild type); higher = more cleavage; co-transcriptional.
Regarding GGCCGGCAUGGUCCCAGCCUCCUCGCUGGCGCCGGCUGGGAAACAUUCCGAGGGGAGCGUCCCCUCGGUAAUGGCGAAUGGGACCCA [C41A C57G], the self-cleavage worked out at 1.04.

For the variant GGCCGGCAUGGUCCCAGCCUCCUCGCUGGCGCCGGCUGGGAAACAUUCCGAGGGGACCGUCCACUCGGUAAUGGCGAAUGGGACCCA [C41A C63A], the self-cleavage came out at 0.969.

For GGCCGGCAUGGUCCCAGCCUCCUCGCUGGCGCCGGCUGGGAAACAGUCCGAGGGGACCGUCCCCUCGGUAAUGGCGAAUGGGACCCA [C41A U46G], the self-cleavage is 0.554.

Consider GGCCGGCAUGGUCCCAGCCUCCUCGCUGGCGCCGGCUGGGAAACACUCCGAGGGGACCGUCCCCUCGGUAAUGGCGAAUGGGACCCA [C41A U46C], for which the self-cleavage is 0.415.

For the variant GGCCGGCAUGGUCCCAGCCUCCUCGCUGGCGCCGGCUGGGAAACAAUCCGAGGGGACCGUCCCCUCGGUAAUGGCGAAUGGGACCCA [C41A U46A], the self-cleavage is 0.7.

As to GGCCGGCAUGGUCCCAGCCUCCUCGCUGGCGCCGGCUGGGAAACAUUCCGAGGGUACCGUCCCCUCGGUAAUGGCGAAUGGGACCCA [C41A G55U], the self-cleavage stood at 0.968.

As for GGCCGGCAUGGUCCCAGCCUCCUCGCUGGCGCCGGCUGGGAAACAUUCCGAGGGGACCGUCCCCUCGGUAAUGGCGAAUGGGACACA [C41A C85A], the self-cleavage came to 0.636.

Consider GGCCGGCAUGGUCCCAGCCUCCUCGCUGGCGCCGGCUGGGAAACAUUCCGAGGGGACCGUCCCCUCGGUAAUGGCGAAUGGGACGCA [C41A C85G], for which the self-cleavage was found to be 0.86.

Take GGCCGGCAUGGUCCCAGCCUCCUCGCUGGCGCCGGCUGGGAAACAUUCCGAGGGGACCGUCCCCUCGGUAAUGGCGAACGGGACCCA [C41A U79C]: the self-cleavage amounted to 0.237.

On to GGCCGGCAUGGUCCCAGCCUCCUCGCUGGCGCCGGCUGGGAAACAUUCCGAGGGGACCGUCCCCUCGGUAAUGGCGAAGGGGACCCA [C41A U79G], for which the self-cleavage was determined as 0.858.

Consider GGCCGGCAUGGUCCCAGCCUCCUCGCUGGCGCCGGCUGGGAAACAUUCCGAGGUGACCGUCCCCUCGGUAAUGGCGAAUGGGACCCA [C41A G54U], for which the self-cleavage came out at 0.862.

Turning to GGCCGGCAUGGUCCCAGCCUCCUCGCUGGCGCCGGCUGGGAAACAUUCCGAGGGGACCGUGCCCUCGGUAAUGGCGAAUGGGACCCA [C41A C61G], the self-cleavage was 0.909.

In the case of GGCCGGCAUGGUCCCAGCCUCCUCGCUGGCGCCGGCUGGGAAACAUUCCGAGGGGACCGUACCCUCGGUAAUGGCGAAUGGGACCCA [C41A C61A], the self-cleavage was determined as 1.07.

In the case of GGCCGGCAUGGUCCCAGCCUCCUCGCUGGCGCCGGCUGGGAAACAUUCCGAGGGGACUGUCCCCUCGGUAAUGGCGAAUGGGACCCA [C41A C58U], the self-cleavage was found to be 0.778.

Take GGCCGGCAUGGUCCCAGCCUCCUCGCUGGCGCCGGCUGGGAAACAUUCCGAGGGGACAGUCCCCUCGGUAAUGGCGAAUGGGACCCA [C41A C58A]: the self-cleavage came out at 0.831.

GGCCGGCAUGGUCCCAGCCUCCUCGCUGGCGCCGGCUGGGGAACAUUCCGAGGGGACCGUCCCCUCGGUAAUGGCGAAUGGGACCCA [C41G]: the self-cleavage turned out to be 0.798.

In the case of GGCCGGCAUGGUCCCAGCCUCCUCGCUGGCGCCGGCUGGGAAACAUUCCGAGGGGACCGUCCCCUCGGUAAUGGCGAAUGUGACCCA [C41A G81U], the self-cleavage was 0.211.

GGCCGGCAUGGUCCCAGCCUCCUCGCUGGCGCCGGCUGGGGUACAUUCCGAGGGGACCGUCCCCUCGGUAAUGGCGAAUGGGACCCA [C41G A42U]: the self-cleavage was found to be 0.886.

Turning to GGCCGGCAUGGUCCCAGCCUCCUCGCUGGCGCCGGCUGGGGAACAUUCCGAGGGGACCGUCCCCUCGGUAAUGGCGUAUGGGACCCA [C41G A77U], the self-cleavage was found to be 0.185.

For the variant GGCCGGCAUGGUCCCAGCCUCCUCGCUGGCGCCGGCUGGGGAACAUUCCGAGGGGACCGUCCCCUCGGUAAUGGCGCAUGGGACCCA [C41G A77C], the self-cleavage was found to be 0.222.

For GGCCGGCAUGGUCCCAGCCUCCUCGCUGGCGCCGGCUGGGAAACAUUCCGAGGGGACCGUCCCUUCGGUAAUGGCGAAUGGGACCCA [C41A C64U], the self-cleavage worked out at 0.831.

For GGCCGGCAUGGUCCCAGCCUCCUCGCUGGCGCCGGCUGGGAAACAUUCCGAGGGGACCGUCCCAUCGGUAAUGGCGAAUGGGACCCA [C41A C64A], the self-cleavage amounted to 0.794.

With GGCCGGCAUGGUCCCAGCCUCCUCGCUGGCGCCGGCUGGGAAACAUUCCGACGGGACCGUCCCCUCGGUAAUGGCGAAUGGGACCCA [C41A G52C], the self-cleavage amounted to 0.928.

On to GGCCGGCAUGGUCCCAGCCUCCUCGCUGGCGCCGGCUGGGAAACAUUCCGAAGGGACCGUCCCCUCGGUAAUGGCGAAUGGGACCCA [C41A G52A], for which the self-cleavage was determined as 0.901.

In the case of GGCCGGCAUGGUCCCAGCCUCCUCGCUGGCGCCGGCUGGGAAACAUUCCGAGGGGACCGUCCCCCCGGUAAUGGCGAAUGGGACCCA [C41A U65C], the self-cleavage was 1.14.

Turning to GGCCGGCAUGGUCCCAGCCUCCUCGCUGGCGCCGGCUGGGGAACAUUCCGAGGGGACCGUCCCCUCGGUAAUGGCGACUGGGACCCA [C41G A78C], the self-cleavage worked out at 0.0405.

Consider GGCCGGCAUGGUCCCAGCCUCCUCGCUGGCGCCGGCUGGGGAACAUUCCGAGGGGACCGUCCCCUCGGUAAUGGCGAGUGGGACCCA [C41G A78G], for which the self-cleavage came out at 0.208.

As for GGCCGGCAUGGUCCCAGCCUCCUCGCUGGCGCCGGCUGGGGAACAUUCCGAGGGGACCGUCCCCUCGGUAAUGGCGAUUGGGACCCA [C41G A78U], the self-cleavage was determined as 0.178.

In the case of GGCCGGCAUGGUCCCAGCCUCCUCGCUGGCGCCGGCUGGGGAACGUUCCGAGGGGACCGUCCCCUCGGUAAUGGCGAAUGGGACCCA [C41G A45G], the self-cleavage is 1.01.

As for GGCCGGCAUGGUCCCAGCCUCCUCGCUGGCGCCGGCUGGGGAACCUUCCGAGGGGACCGUCCCCUCGGUAAUGGCGAAUGGGACCCA [C41G A45C], the self-cleavage was 0.166.

For the variant GGCCGGCAUGGUCCCAGCCUCCUCGCUGGCGCCGGCUGGGGAACUUUCCGAGGGGACCGUCCCCUCGGUAAUGGCGAAUGGGACCCA [C41G A45U], the self-cleavage came out at 0.594.

In the case of GGCCGGCAUGGUCCCAGCCUCCUCGCUGGCGCCGGCUGGGAAACAUUCCGAGGGGACCGUCCCCUCGGUAAUGACGAAUGGGACCCA [C41A G74A], the self-cleavage came out at 0.692.
